Source: patent publication US20140348829A1 (CYTODYN, published 2014)
Numbering of substitutions follows the chain as printed.

Legend:
[1] = biological target: feline LFA-1 (CD11a/CD18 heterodimer) (feline); test: cell binding assay on feline MCH-4 cells, CHO supernatant; against chimeric #1
[2] = biological target: feline LFA-1 (CD11a/CD18 heterodimer) (feline); test: cell binding assay on feline MCH-4 cells, purified antibody
[3] = biological target: feline LFA-1 (CD11a/CD18 heterodimer) (feline); test: cell binding assay on feline MCH-4 cells, purified antibody; against chimeric #1
[4] = biological target: feline LFA-1 (CD11a/CD18 heterodimer) (feline); test: cell binding assay on feline MCH-4 cells, CHO supernatant, HRP anti-feline IgG
[5] = biological target: feline LFA-1 (CD11a/CD18 heterodimer) (feline, UniProt A0ABI8A8D3 24-1171; A0ABI7ZVN3 67-787); test: as above

B1: Felinized HC 3+Felinized LC 2 (#15) antibody: 7301 (Felinized HC 3) + 7303 (Felinized LC 2) (antibody, IgG1)
heavy: QVQLVQSGAEVRKPGASVKIFCKASGYTFTSYYIHWLRQTPEQGREWIGWIYVGDGNTRYNEKFQGRLTLTADKSTSTAYMELSSLRSADTAIYFCARGGNGYFDYWGQDTLVTVSSDIVMTQTPLSLSVTPGEPASISCRASQDVSTALNWYLQKPGQSPRLLIYWASNRHSGVPDRFSGSGSGTDYTLRISRVEADDVGVYYCQQHYSSSLTFGPGTKLEI
light: B1 heavy with K13T, L37V, T40S, E42A, I48M, R59K, K63R, I93M, D110G, T111A
fold less affinity than the chimeric [1]: 3 fold
OD450 at 0.1 ug [2]: 0.86 OD450
OD450 at 1 ug [2]: 1.29 OD450
Average fold change over chimeric [3]: 0.76 fold
Relative antigen binding (normalized to parental antibody) (relative to parental) [4]: 0.3

B2: antibody #6: 7299 (Felinized HC 1) + 7302 (Felinized LC 1) (antibody, IgG1)
heavy: B1 heavy with R45L, I48M, E62Q
light: B1 heavy
Relative antigen binding (normalized to parental antibody) (relative to parental) [4]: 0.05

B3: antibody #16: 7301 (Felinized HC 3) + 7304 (Felinized LC 3) (antibody)
heavy: B1 heavy
light: B1 heavy with K13T, L37V, T40S, E42A, I48M, R59K, K63R, I93M, D110G, T111A
Relative antigen binding (normalized to parental antibody) (relative to parental) [4]: 0.05

B4: antibody #14: 7301 (Felinized HC 3) + 7302 (Felinized LC 1) (antibody, IgG1)
heavy: B1 heavy
light: B1 heavy
notes: Fully felinized, feline IgG1/kappa; tested as CHO supernatant
Relative antigen binding (normalized to parental antibody) [5]: 0.06 relative to parental

B5: antibody #10: 7300 (Felinized HC 2) + 7302 (Felinized LC 1) (antibody)
heavy: B1 heavy with R45L, I48M, E62Q
light: B1 heavy
Relative antigen binding (normalized to parental antibody) (relative to parental) [4]: 0.05
